Reference: PMC13315578
Positions count from the first letter of the chain named.

Experiments:
Settings in all cases: protein: recombinant; tags: N-terminal 6xHis-TEV site; tRNA fold, annealed
Min Elp3 Y304A = target: T1, Min Elp3 Y304A (Methanocaldococcus infernus, UniProt D5VRB9 1-534, Y304A); assay: EMSA; EMSA: 250 nM tRNA, 0-20 uM Elp3, 100 mM HEPES pH 7.5, 750 mM NaCl, 25 mM DTT, 20 °C 30 min; 5% TBE gel at 4 °C
T1 sequence: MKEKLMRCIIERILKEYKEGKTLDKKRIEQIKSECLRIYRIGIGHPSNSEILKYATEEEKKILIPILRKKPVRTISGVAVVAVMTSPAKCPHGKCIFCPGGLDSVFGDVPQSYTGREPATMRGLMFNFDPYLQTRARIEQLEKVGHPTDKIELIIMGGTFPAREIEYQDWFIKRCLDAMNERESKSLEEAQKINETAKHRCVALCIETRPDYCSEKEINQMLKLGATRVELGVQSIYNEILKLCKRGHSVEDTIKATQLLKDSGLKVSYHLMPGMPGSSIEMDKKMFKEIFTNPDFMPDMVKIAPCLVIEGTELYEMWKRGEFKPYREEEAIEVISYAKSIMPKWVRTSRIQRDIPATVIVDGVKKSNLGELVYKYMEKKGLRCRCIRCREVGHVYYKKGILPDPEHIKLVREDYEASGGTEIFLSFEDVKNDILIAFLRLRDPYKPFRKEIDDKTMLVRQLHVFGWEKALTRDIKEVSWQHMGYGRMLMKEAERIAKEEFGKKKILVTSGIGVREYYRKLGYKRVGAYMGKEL

Min Elp3 M156W = target: T2, Min Elp3 M156W (Methanocaldococcus infernus, UniProt D5VRB9 1-534, M156W); assay: EMSA; comparable affinity to WT; EMSA: 250 nM tRNA, 0-20 uM Elp3, 100 mM HEPES pH 7.5, 750 mM NaCl, 25 mM DTT, 20 °C 30 min; 5% TBE gel at 4 °C
T2 sequence: T1 sequence with M156W, A304Y

Min Elp3 I154W = target: T3, Min Elp3 I154W (Methanocaldococcus infernus, UniProt D5VRB9 1-534, I154W); assay: as above
T3 sequence: T1 sequence with I154W, A304Y

Min Elp3 E207A = target: T4, Min Elp3 E207A (Methanocaldococcus infernus, UniProt D5VRB9 1-534, E207A); assay: EMSA; similar affinity to WT; EMSA: 250 nM tRNA, 0-20 uM Elp3, 100 mM HEPES pH 7.5, 750 mM NaCl, 25 mM DTT, 20 °C 30 min; 5% TBE gel at 4 °C
T4 sequence: T1 sequence with E207A, A304Y

Min Elp3 K302A = target: T5, Min Elp3 K302A (Methanocaldococcus infernus, UniProt D5VRB9 1-534, K302A); assay: as above
T5 sequence: T1 sequence with K302A, A304Y

B1: tRNA ArgUCU (structured_RNA)
RNA: GGACCCGUAGCCUAGCCUGGAUAGGGCACCGGCCUUCUAAGCCGGGGGUCGGGGGUUCAAAUCCCCCCGGGUCCGCCA
Min Elp3 Y304A
  binding signal: ~1.5 fold KD increase vs WT
Min Elp3 M156W
  binding result: binds
Min Elp3 I154W
  binding result: binds
Min Elp3 E207A
  binding result: binds
Min Elp3 K302A
  binding result: binds
